Publication PMC2597375 (Nature structural & molecular biology, 2008)
Where a chain is given by its changes, count along the chain named. In names and notes the source's numbering stands. Where no end group is shown, it is not given here. [ ]: non-standard residue; d: D form. pS = N[C@@H](COP(=O)(O)O)C(=O)O

Key:
[1] = target: unlabeled double-repeat CTD-Ser5P peptide (S. cerevisiae); assay: fluorescence polarisation
[2] = target: unlabeled double-repeat CTD-Ser2P/Ser5P peptide (S. cerevisiae); assay: fluorescence polarisation
Nrd1_(6–224) = target: T1, Nrd1_(6–224) (S. cerevisiae, UniProt P53617 6-224); assay: ITC
T1 sequence: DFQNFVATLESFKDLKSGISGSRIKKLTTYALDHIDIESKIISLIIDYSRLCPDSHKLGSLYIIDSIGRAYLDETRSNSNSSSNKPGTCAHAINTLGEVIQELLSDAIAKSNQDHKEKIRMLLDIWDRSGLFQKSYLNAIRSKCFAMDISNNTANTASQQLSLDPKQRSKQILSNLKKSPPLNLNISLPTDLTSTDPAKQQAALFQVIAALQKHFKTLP

Nrd1_(6–151) S22D = target: T2, Nrd1_(6–151) S22D (S. cerevisiae, UniProt P53617 6-151, S22D); assay: fluorescence polarisation
T2 sequence: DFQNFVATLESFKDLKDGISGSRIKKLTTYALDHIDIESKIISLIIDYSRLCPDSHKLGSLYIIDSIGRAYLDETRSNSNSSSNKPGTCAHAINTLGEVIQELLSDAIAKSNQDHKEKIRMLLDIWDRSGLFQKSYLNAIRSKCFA

Nrd1_(6–151) I130R = target: T3, Nrd1_(6–151) I130R (S. cerevisiae, UniProt P53617 6-151, I130R); assay: fluorescence polarisation
T3 sequence: T2 sequence with D17S, I125R

Nrd1_(6–151) wild-type = target: T4, Nrd1_(6–151) wild-type (S. cerevisiae, UniProt P53617 6-151); assay: fluorescence polarisation
T4 sequence: T2 sequence with D17S

Nrd1_(6–151) K21P = target: T5, Nrd1_(6–151) K21P (S. cerevisiae, UniProt P53617 6-151, K21P); assay: fluorescence polarisation
T5 sequence: T2 sequence with K16P, D17S

Nrd1_(6–151) K21D = target: T6, Nrd1_(6–151) K21D (S. cerevisiae, UniProt P53617 6-151, K21D); assay: fluorescence polarisation
T6 sequence: T2 sequence with K16D, D17S

Nrd1_(6–151) L20D = target: T7, Nrd1_(6–151) L20D (S. cerevisiae, UniProt P53617 6-151, L20D); assay: fluorescence polarisation
T7 sequence: T2 sequence with L15D, D17S

Pol II = format: binding, S. cerevisiae; details: whole-cell extracts, IgG purification, anti-CTD Ser5P (H14) immunoblot
CTD = CTD binding of Nrd1 variants; details: point mutants: fluorescence anisotropy, Table 1; deletions: data not shown

Nrd1_(6–214) wild-type (from UniProt P53617 6-214) (domain or fragment)
Kd [1]: 48 µM

Nrd1_(6–151) wild-type (from UniProt P53617 6-151) (domain or fragment)
Kd [2]: 16 µM
Kd [1]: 40 µM

Nrd1_(6–151) L20D (from UniProt P53617 6-151) (domain or fragment)
Kd [2]: 19 µM

B1: Nab3_(204–248) (domain or fragment)
chain: ENVNYDLLQKQVKYIMDSNMLNLPQFQHLPQEEKMSAILAMLNSN
Kd (Nrd1_(6–224)): 160 nM
stoichiometry N (Nrd1_(6–224)): 1

B2: unlabeled double-repeat CTD-Ser2P peptide (peptide)
chain: Y[pS]PTSPSY[pS]PTSPS
Kd (Nrd1_(6–151) S22D): 470 µM
Kd (Nrd1_(6–151) I130R): 550 µM
Kd (Nrd1_(6–151) wild-type): 390 µM
Kd (Nrd1_(6–151) K21P): 380 µM
Kd (Nrd1_(6–151) K21D): 610 µM
Kd (Nrd1_(6–151) L20D): 560 µM

B3: Nrd1Δ151–214 (protein)
chain: MQQDDDFQNFVATLESFKDLKSGISGSRIKKLTTYALDHIDIESKIISLIIDYSRLCPDSHKLGSLYIIDSIGRAYLDETRSNSNSSSNKPGTCAHAINTLGEVIQELLSDAIAKSNQDHKEKIRMLLDIWDRSGLFQKSYLNAIRSKCFALQKHFKTLPSHTSVGTVAPPQAHTITEYGSRRERERERERYNSRRNRSRSPPAPFSQPSTGRKDRYPSVAQDQYSIGAPNTTFGTNNHHLYPDELNVSNNPHYRPKPVSYDSTLPPDHIKVYSRTLFIGGVPLNMKEWDLANVLKPFAEVQSVILNNSRKHAFVKVYSRHEAENVLQNFNKDGALPLRTRWGVGFGPRDCCDYQHGYSIIPMHRLTDADKKWSVSAQWGGTSGQPLVTGIVFEEPDIIVGEGVSSKAISQKMPTDSGRNGPRSGKPNKSGSISSISPVPYGNAPLASPPPQQYVQPMMQQPYGYAPNQPLPSQGPAAAAPPVPQQQFDPTAQLNSLMNMLNQQQQQQQQS
modifications: left off: TAP (with Protein A module), end not stated, kept
Association with Pol II (Pol II): greatly reduced association with Pol II

B4: Nrd1_307–560: containing only the RNA binding region and the C-terminal region (protein)
chain: PDELNVSNNPHYRPKPVSYDSTLPPDHIKVYSRTLFIGGVPLNMKEWDLANVLKPFAEVQSVILNNSRKHAFVKVYSRHEAENVLQNFNKDGALPLRTRWGVGFGPRDCCDYQHGYSIIPMHRLTDADKKWSVSAQWGGTSGQPLVTGIVFEEPDIIVGEGVSSKAISQKMPTDSGRNGPRSGKPNKSGSISSISPVPYGNAPLASPPPQQYVQPMMQQPYGYAPNQPLPSQGPAAAAPPVPQQQFDPTAQLNS
CTD binding of Nrd1 variant (CTD): no CTD binding

B5: Nrd1Δ6–150 (protein)
chain: MQQDDAMDISNNTANTASQQLSLDPKQRSKQILSNLKKSPPLNLNISLPTDLTSTDPAKQQAALFQVIAALQKHFKTLPSHTSVGTVAPPQAHTITEYGSRRERERERERYNSRRNRSRSPPAPFSQPSTGRKDRYPSVAQDQYSIGAPNTTFGTNNHHLYPDELNVSNNPHYRPKPVSYDSTLPPDHIKVYSRTLFIGGVPLNMKEWDLANVLKPFAEVQSVILNNSRKHAFVKVYSRHEAENVLQNFNKDGALPLRTRWGVGFGPRDCCDYQHGYSIIPMHRLTDADKKWSVSAQWGGTSGQPLVTGIVFEEPDIIVGEGVSSKAISQKMPTDSGRNGPRSGKPNKSGSISSISPVPYGNAPLASPPPQQYVQPMMQQPYGYAPNQPLPSQGPAAAAPPVPQQQFDPTAQLNSLMNMLNQQQQQQQQS
modifications: left off: TAP (with Protein A module), end not stated, kept
Association with Pol II (Pol II): greatly reduced association with Pol II

B6: Nrd1_(6–151) K21P (domain or fragment)
chain: T2 sequence with K16P, D17S
Kd [2]: 48 µM
Kd [1]: 70 µM

B7: Nrd1_(6–151) S22D (domain or fragment)
chain: T2 sequence
Kd [2]: 100 µM
Kd [1]: 140 µM

B8: Nrd1_(6–151) I130R (domain or fragment)
chain: T2 sequence with D17S, I125R
Kd [2]: 27 µM
Kd [1]: 215 µM

B9: Nrd1_(6–151) D70R (domain or fragment)
chain: T2 sequence with D17S, D65R
Kd [2]: 100 µM
Kd [1]: 680 µM

B10: Nrd1_(6–151) K21D (domain or fragment)
chain: T2 sequence with K16D, D17S
Kd [2]: 70 µM
Kd [1]: 95 µM
